Measurements as given in US20240425607A1, “IL-18BP ANTAGONIST ANTIBODIES AND THEIR USE IN MONOTHERAPY AND COMBINATION THERAPY IN THE TREATMENT OF CANCER” (Compugen Ltd., priority 2023, published 2024).

Tests used:
[1] = test system: MC38ova tumor-bearing mice; experiment: Peripheral effects in MC38ova tumor-bearing mice: anti-mIL18BP vs engineered mIL-18; assay type: in vivo; conditions: mouse, in vivo
Procedure: Nine days pre-inoculum, vials of MC38ova^dim cells were thawed into RPMI media containing 10% FBS, 1% Glutamax, 1% Sodium pyruvate, 1% HEPES, 1% NEAA, 0.01% 2-mercaptoethanol, 1% Penicillin-Streptomycin. Following centrifugation at 300×g for 8 min, cell pellet was resuspended, counted and seeded in a T175 flask. On days −7, −5 and −2, the cells were detached and re-seeded at 6-8*10^6 cells/T175 flask. On the day of inoculum, the cells were detached, centrifuged at 300×g for 10 min, filtered through […] cell strainer and resuspended in RPMI.
Experiments were performed in C57Bl/6 (female, 6-8 wk, Envigo). Mice were anesthetized with 10% Ketamine and 10% Xylazine mixture injected intraperitoneal. Next, mice were inoculated with MC38ova cells (1.2×10^6) subcutaneously to the right flank in 50 μl/mice.
At tumor volume of −120 mm^3 (day 9), mice were randomly assigned into treatment groups. Mice were treated with Synagis mouse IgG1, k isotype control 15 mg/kg (IP), anti-mIL18 bp 837 mIgG1 15 mg/kg (IP), PBS (SC), or engineered IL-18 (SC) 0.32 mg/kg. Treatments were injected twice a week for a total of 6 treatments. […] Mice were weighed every week. Mice were bled before the 4th treatment, 4 hours after the 4th treatment, and 24 hours after the 4th treatment. Serum was analyzed for presence of IFNg, TNFα, MCP1, IL6 by Cytometric Bead Array (CBA) Mouse Inflammation Kit (BD Cat. No. 552364). Spleens were harvested from mice 24 hours after the 4th treatment and weighed. For IL15 experiments, mice were treated with a single dose of 0.5 μg, 1.5 μg of IL15, or with a mix of 0.5 μg IL15 and 2.33 μg IL15R.
Spleens were crushed into 40 μm filters and red blood cells were lysed. Single-cell suspensions were seeded into a 96-well V-bottomed plate. Cells were labeled for viability and dead cells were excluded using the Fixable Viability Stain 450 (BD Bioscience Cat #562247). To block Fcγ receptors, cells were incubated with 10 μg/mL of Purified Rat Anti-Mouse CD16/CD32 (Mouse BD Fc Block™, BD Bioscience Cat #553142) in cold 1×PBS buffer for 10 minutes. Various immune populations were stained with anti-mouse antibodies (Table 17). After washing (1% BSA, 0.1% sodium azide, in PBS), cells were acquired on FACS Fortessa cytometer (BD Bioscience). Analysis was done using FlowJo.

[2] = molecular target: T1, IL18-BP (Mus musculus, UniProt Q9Z0M9); conditions: cited from earlier work
T1 sequence (Q9Z0M9 29-193): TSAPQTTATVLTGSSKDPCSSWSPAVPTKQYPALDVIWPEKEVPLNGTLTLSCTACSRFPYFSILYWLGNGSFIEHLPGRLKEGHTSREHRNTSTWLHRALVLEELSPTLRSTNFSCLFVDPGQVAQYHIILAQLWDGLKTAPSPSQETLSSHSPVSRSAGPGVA

B1: engineered mIL-18: Engineered IL-18 of US 20190070262A1, SEQ ID NO: 1920 (protein)
chain: HFGRLHCTTAVIRNINDQVLFVDKRQPVFEDMTDIDQSASEPQTRLIIYAYGDSRARGKAVTLSVKDSKMSTLSCKNKIISFEEMDPPENIDDIQSDLIFFQKRVPGHNKMEFESSLYEGHFLACQKEDDAFKLILKKKDENGDKSVMFTLTNLHQSHHHHHH
- Activation state of splenic lymphocytes vs control [1]: significantly more CD69+CD4+ T-cells, CD69+CD8 T-cells, CD69+B Cells, CD107+NK cells, and CD69+CD107+ NKT cells
- Serum levels of IL18, 4 hours after the 4th treatment [1]: very high serum levels of IL18
- Serum levels of IL18, 24 hours after the 4th treatment [1]: returned to baseline
- Spleen enlargement vs control, average [1]: 4.9 folds
- Splenic CD45+ immune cells, CD3+ T cells and CD19+ B cells vs control [1]: larger number of CD45+ immune cells, as well as CD3+ T cells and CD19+B cells
- Binding to IL18-BP [2]: not to bind IL18-BP
